Test results: patent publication US20210254072, “TNF-TARGETING APTAMERS AND USES THEREOF FOR TREATMENT OR DIAGNOSING TNF-RELATED INFLAMMATORY DISEASES” (Academia Sinica, published 2021)

Experiments:
[1] = target: BSA (bovine serum albumin) (UniProt P02769 P02769:25-607); test: filter; BSA 140 nM used as reference (1 fold)
Protocol: (§1) Human TNF-α proteins (0, 8.75, 17.5, 35, 70, 140 nM, R&D Systems) were incubated with aptTNF-α (50 nM) at 37° C. for 1 h. In addition, mouse TNF-α proteins (140 nM) or BSA (140 nM) were incubated with aptTNF-α (50 nM) or aptTNF-α-PEG (50 nM) as well. The protein-bound aptamers were then collected by nitrocellulose filter and eluted by heating. The amount of the eluted aptamers was quantified by quantitative PCR (LightCycler 480 system, Roche Applied Science, Mannheim, Germany) The dissociated constant (Kd) was calculated by GraphPad Prism 5 (GraphPad Software, San Diego, Calif.), using the equation Y=Amax×X/(Kd+X). The relative amounts of protein-binding aptamers (human TNF-α proteins and mouse TNF-α proteins) were represented as fold changes, using BSA as the reference (1 fold).

[2] = target: TNF-alpha (Mus musculus, UniProt P06804 P06804:80-235); test: filter; 140 nM protein, 50 nM aptamer; fold over BSA, value only in figure; conditions: chain copies: 3 (inferred)
Protocol: as §1

Sequence of TNF-alpha (P06804 80-235, one chain of several): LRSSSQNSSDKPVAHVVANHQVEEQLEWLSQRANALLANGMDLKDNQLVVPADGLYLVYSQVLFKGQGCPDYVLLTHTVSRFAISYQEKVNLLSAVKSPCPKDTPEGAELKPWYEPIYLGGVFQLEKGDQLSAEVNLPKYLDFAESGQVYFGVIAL
Sequence of BSA (bovine serum albumin) (P02769 25-607, one chain of several): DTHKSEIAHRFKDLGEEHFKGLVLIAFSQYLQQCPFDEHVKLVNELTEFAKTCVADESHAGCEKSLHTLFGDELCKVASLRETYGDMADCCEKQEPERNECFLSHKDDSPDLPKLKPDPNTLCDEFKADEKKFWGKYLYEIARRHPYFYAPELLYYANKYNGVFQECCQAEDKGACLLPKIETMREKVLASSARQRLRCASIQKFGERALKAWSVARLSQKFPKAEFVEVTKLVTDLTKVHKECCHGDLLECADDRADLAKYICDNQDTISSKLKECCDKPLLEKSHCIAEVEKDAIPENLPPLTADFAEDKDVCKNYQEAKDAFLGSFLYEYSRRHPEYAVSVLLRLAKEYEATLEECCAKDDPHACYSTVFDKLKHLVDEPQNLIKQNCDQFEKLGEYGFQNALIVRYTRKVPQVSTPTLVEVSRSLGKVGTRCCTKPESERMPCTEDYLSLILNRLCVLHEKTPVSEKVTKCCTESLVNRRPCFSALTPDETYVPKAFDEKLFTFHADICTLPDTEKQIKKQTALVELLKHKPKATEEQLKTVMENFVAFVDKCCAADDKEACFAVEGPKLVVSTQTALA

Binder | binding signal [1] [fold] | binding result [2]
GCGCCACTACAGGGGAGCTGCCATTCGAATAGGTGGGCCGC (ssDNA) [aptTNF-alpha] | 1 | binds
GCGCCACTACAGGGGAGCTGCCATTCGAATAGGTGGGCCGC (ssDNA, two copies of amine-labeled SEQ ID NO: 1 linked by 20 kDa PEG (NHS-PEG-NHS)) [aptTNF-alpha-PEG (dimer)] | 1 | binds
